The values below come from US20250228964A1 (CODIAK BIOSCIENCES, published 2025).

The data set deals with the molecule itself. Briefly: SEC-MALS (eluted at 198 kDa against the predicted 98 kDa) and analytical SEC with 0, 1M or 2M GuHCl. As to the method:
To confirm proper expression of the PTGFRN ECD, the purified protein was analyzed by size exclusion chromatography/multiangle light scattering (SEC-MALS), using BSA and an anti-VLA4 antibody as standards for comparison. Recombinant PTGFRN ECD was eluted at ˜2x its predicted molecular weight (198 kDa as opposed to the predicted molecular weight, 98 kDa; FIG. 20A). To determine whether PTGFRN ECD forms a homodimer in solution, recombinant PTGFRN ECD was run over an analytical SEC column (Tosoh, 7.8×30cm, G3000SW xl) in PBS in the absence of guanidium chloride (GuHCl) or in the presence of 1M or 2M guanidinium chloride (GuHCl).

B1: recombinant PTGFRN extracellular domain (ECD), purified, Fc tag removed with thrombin (receptor)
chain: VPTATLVRVVGTELVIPCNVSDYDGPSEQNFDWSFSSLGSSFVELASTWEVGFPAQLYQERLQRGEILLRRTANDAVELHIKNVQPSDQGHYKCSTPSTDATVQGNYEDTVQVKVLADSLHVGPSARPPPSLSLREGEPFELRCTAASASPLHTHLALLWEVHRGPARRSVLALTHEGRFHPGLGYEQRYHSGDVRLDTVGSDAYRLSVSRALSADQGSYRCIVSEWIAEQGNWQEIQEKAVEVATVVIQPSVLRAAVPKNVSVAEGKELDLTCNITTDRADDVRPEVTWSFSRMPDSTLPGSRVLARLDRDSLVHSSPHVALSHVDARSYHLLVRDVSKENSGYYYCHVSLWAPGHNRSWHKVAEAVSSPAGVGVTWLEPDYQVYLNASKVPGFADDPTELACRVVDTKSGEANVRFTVSWYYRMNRRSDNVVTSELLAVMDGDWTLKYGERSKQRAQDGDFIFSKEHTDTFNFRIQRTTEEDRGNYYCVVSAWTKQRNNSWVKSKDVFSKPVNIFWALEDSVLVVKARQPKPFFAAGNTFEMTCKVSSKNIKSPRYSVLIMAEKPVGDLSSPNETKYIISLDQDSVVKLENWTDASRVDGVVLEKVQEDEFRYRMYQTQVSDAGLYRCMVTAWSPVRGSLWREAATSLSNPIEIDFQTSGPIFNASVHSDTPSVIRGDLIKLFCIITVEGAALDPDDMAFDVSWFAVHSFGLDKAPVLLSSLDRKGIVTTSRRDWKSDLSLERVSVLEFLLQVHGSEDQDFGNYYCSVTPWVKSPTGSWQKEAEIHSKPVFITVKMDVLNAFKYP
notes: Expressed in Expi293 as signal peptide-ECD-PAR1 cleavage site-Fc; the Fc was removed with thrombin, so a remnant of the PAR1 site may remain; also called PTGFRN ECD; purified PTGFRN ECD
As for B1, the binding result is “binds”.
